Laboratory results: US20200079850A1 (SUTRO BIOPHARMA, published 2020)

Biological target: T1, human PD-1 expressed on the surface of CHO cells (human, UniProt Q15116 25-288)
T1 construct: I took it as human PD-1; also called CHO-PD1
Experiment: flow cytometry, CHO-PD1 cells
Protocol: CHO-k cells stably expressing PD-1 or LAG3 (human or cynomolgus) on the cell surface were used to assess binding affinity of anti-PD-1/LAG3 bispecific antibody constructs. Cells were seeded at 100,000 cells/well in 100 μL of FACS buffer (1×PBS, 0.5% BSA, 0.1% sodium azide) in 96-well polypropylene plates. The cells were centrifuged at 1.5K rpm and resuspended with test antibodies diluted in FACS buffer and incubated on ice for 1 hour. The cells were washed twice with FACS buffer and incubated on ice for 30 mins with R-Phycoerythrin-AffiniPure F(ab′)2 Fragment Goat Anti-Human IgG (H+L) secondary detection antibody (1:200 dilution, Jackson ImmunoResearch Laboratories, West Grove, Pa.). The cells were washed twice with FACS buffer, fixed in 4% paraformaldehyde in PBS (Santa Cruz Biotechnology; Dallas, Tex.) for 20 mins on ice in the dark, washed twice with FACS buffer, and analyzed using the BD LSR II Flow Cytometer (BD Biosciences; San Jose, Calif.). Data were analyzed using FlowJo (FlowJo, LLC; Ashland, Oreg.) to determine mean fluorescence intensities. Binding constants were calculated using the statistical software, GraphPad Prism (GraphPad Software; La Jolla, Calif.) using the nonlinear regression equation, one site—specific binding with Hill slope. The secondary antibody by itself was used as a control.

T1 sequence (Q15116 25-288 limits assumed): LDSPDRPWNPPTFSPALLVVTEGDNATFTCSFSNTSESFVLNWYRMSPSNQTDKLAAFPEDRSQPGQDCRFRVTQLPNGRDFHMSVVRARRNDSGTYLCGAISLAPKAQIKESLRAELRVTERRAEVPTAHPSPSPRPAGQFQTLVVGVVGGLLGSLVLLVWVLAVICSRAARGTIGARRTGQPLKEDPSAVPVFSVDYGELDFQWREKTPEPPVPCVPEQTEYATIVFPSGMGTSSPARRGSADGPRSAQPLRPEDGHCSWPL

Row | Binder | Bmax | Kd [nM]
1 | Construct G: aPD1 1353-G10 Fab_K × aLAG3 1449-G09.2 scFvFc_H (three-chain Fab x scFvFc) (bispecific antibody, human IgG1, lambda) heavy: not shown light: MSYELTQPPSVSVSPGQTARITCSGDALPKQYAYWYQQKPGQAPVMVIYKDTERPSGIPERFSGSSSGTKVTLTISGVQAEDEADYYCQSADNSITYRVFGGGTKVTVLGQPKAAPSVTLFPPSSEELQANKATLVCLISDFYPGAVTVAWKADSSPVKAGVETTTPSKQSNNKYAASSYLSLTPEQWKSHRSYSCQVTHEGSTVEKTVAPTECS scFv: not shown | 6380 | 0.8
2 | Construct H: aPD1 1353-G10 Fab_H × aLAG3 1449-G09.2 scFvFc_K (three-chain Fab x scFvFc) (bispecific antibody, human IgG1, lambda) heavy: not shown light: MSYELTQPPSVSVSPGQTARITCSGDALPKQYAYWYQQKPGQAPVMVIYKDTERPSGIPERFSGSSSGTKVTLTISGVQAEDEADYYCQSADNSITYRVFGGGTKVTVLGQPKAAPSVTLFPPSSEELQANKATLVCLISDFYPGAVTVAWKADSSPVKAGVETTTPSKQSNNKYAASSYLSLTPEQWKSHRSYSCQVTHEGSTVEKTVAPTECS scFv: not shown | 5460 | 0.4
